In article PMC10950897, “VCF1 is a p97/VCP cofactor promoting recognition of ubiquitylated p97-UFD1-NPL4 substrates” (Nature Communications, 2024):

What was measured:
[1] = test system: p97 hexamer (His6-p97); assay: Mass photometry; assay type: binding, human; conditions: saturating VCF1, absence of other cofactors
Protocol: Mass photometry experiments were performed on a Refeyn One (Refeyn Ltd) mass photometer at room temperature. Measurements were run in triplicates, diluting 3 μl of protein sample (20 nM) in 15 μl PBS buffer loaded on a gasket (Grace Bio-Labs reusable CultureWell gaskets (GBL103250, Merck)) mounted on a glass microscope coverslip (0107222, Marienfeld). Experiments were performed with His6-p97 alone and in presence of saturating concentrations of full-length Strep-HA-VCF1. The molecular weight was obtained by contrast comparison with known molecular weight mass standard calibrants (NativeMark Unstained Protein Standard (LC0725), Thermo Fischer Scientific) measured on the same buffer and on the same day. Movies were recorded using AcquireMP (Refeyn Ltd, version 2022 R1), with a medium field of view and exposure time of 0.95 ms for the acquisition camera settings. A total of 6000 frames were recorded over a duration of one minute. Movies were processed and analysed with the DiscoverMP software (Refeyn Ltd, version 2022 R1) provided by the instrument manufacturer.

[2] = test system: p97 ATPase; assay: ATPase assay; assay type: biochemical, human; conditions: p97 25 nM; for relative ATPase activity: ATP 375 μM
Protocol: For ATPase assays, 1 ml of 5x assay buffer (250 mM Tris, pH 7.4; 100 mM MgCl2; 5 mM EDTA) was mixed with 3 ml water, 5 μl 0.5 M TCEP and 5 μl 10% Triton X. To 40 ul of this assay buffer, recombinant proteins were added, mixed and incubated for 30 min. Final protein concentrations were as follows: p97 (25 nM), VCF1 (range of 0, 0.025, 1, 10 and 25 nM). The reactions were started by adding 10 μl ATP (final concentration of 375 μM) to the 40 μl reactions in a 96 well plate. After 35 min at room temperature, reactions were stopped by adding 50 μl BIOMOL Green reagent (Enzo Life Sciences). Absorbance at 635 nm was measured after 4 min and the relative ATPase activity calculated. Reactions were performed in duplicates and repeated three times.

[3] = test system: Ub(G76V)-GFP, U2OS cells; assay: QIBC of Ub(G76V)-GFP in cells overexpressing FLAG-tagged proteins; assay type: cell-based, human; conditions: FLAG-tagged plasmids, FLAG-positive cells
Protocol: U2OS (catalog no. HTB-96) cells were obtained from ATCC. HEK293-EBNA1-6E cells were a kind gift from Yves Durocher (National Research Council Canada, Montreal, Canada). All mammalian cell lines were cultured under standard conditions at 37 °C and 5% CO2 in DMEM (Thermo) supplemented with 10% FBS (v/v) and penicillin-streptomycin (Thermo). Recombination cloning-compatible U2OS cells were generated using the Flp-In T-Rex Core Kit (Thermo) according to the manufacturer’s instructions and maintained under selection using Blasticidin (Invivogen) and Zeocin (Thermo). To generate cell lines stably expressing GFP-VCF1, U2OS Flp-In T-Rex cells (Thermo) were co-transfected with GFP-VCF1 constructs and pOG44 (Thermo) plasmids, followed by selection with Hygromycin (Invitrogen). Single clones were carefully screened for uniform expression of ectopic GFP-VCF1 at low levels and maintained under selection with Blasticidin and Hygromycin. To induce GFP-VCF1 expression, cells were treated with Doxycycline (DOX) (0.5 µg/ml) for 16 h. U2OS cell lines stably expressing Ub(G76V)-GFP or Ub(G76V)-GFP-20AA were described previously. A U2OS cell line stably expressing Ub(G76V)-GFP-NES was generated under G418 (Invivogen) selection. […]
Mammalian cells grown on coverslips were fixed in formalin buffer (VWR) for 15 min at room temperature (RT). […] Quantitative image-based cytometry (QIBC) was performed as described. […]

VCF1: human FAM104A isoform 1, 186 amino acids (UniProt Q969W3); recombinant Strep-HA-tagged
VCF1 molecules bound per p97 hexamer [1]: 2-3 molecules per p97 hexamer
relative ATPase activity ([2]; 0.025 nM, replicate 1): 0.985
relative ATPase activity ([2]; 0.025 nM, replicate 2): 0.875
relative ATPase activity ([2]; 0.025 nM, replicate 3): 1.031
relative ATPase activity ([2]; 1 nM, replicate 1): 1.071
relative ATPase activity ([2]; 1 nM, replicate 2): 0.934
relative ATPase activity ([2]; 1 nM, replicate 3): 0.99
relative ATPase activity ([2]; 10 nM, replicate 1): 1.095
relative ATPase activity ([2]; 10 nM, replicate 2): 1.007
relative ATPase activity ([2]; 10 nM, replicate 3): 1.066
effect on p97 ATPase activity (in words) [2]: had no impact on the ATPase activity of p97 in vitro
effect of overexpression on Ub(G76V)-GFP [3]: stabilized Ub(G76V)-GFP similar to the effect of elevating NPL4 or p47 expression levels
